This is an account of results in the Human Domainome abundance scans (Beltran et al. 2025).

± gives the uncertainty stated by the source.

First the molecules themselves.
B1: Far upstream element-binding protein 2, residues 142 to 214; numbered along this chain, Q92945 (parent)
chain: RTSMTEEYRVPDGMVGLIIGRGGEQINKIQQDSGCKVQISPDSGGLPERSVSLTGAPESVQKAKMMLDDIVSR
B2: Double-stranded RNA-binding protein Staufen homolog 1, residues 183 to 249; numbered along this chain, O95793 (parent)
chain: KSEISQVFEIALKRNLPVNFEVARESGPPHMKNFVTKVSVGEFVGEGEGKSKKISKKNAAIAVLEEL

In the first data set the parent is B1. Put plainly: abundance fitness (aPCA) (normalised: wild type 0, dead -1); higher = more abundant; growth selection in yeast, the domain comes from the species named. The note with it: Homo sapiens.
With RTSMTEEYRVPDGMVGLIIGRGGEQINKIQQDSGCKVQISPDSGGLPERSVSLTGAPESVQKAKMMLDDIVSA [R73A], the abundance fitness was 0.034 ± 0.057.

For RTSMTEEYRVPDGMVGLIIGRGGEQINKIQQDSGCKVQISPDSGGLPERSVSLTGAPESVQKAKMMLDDIVSL [R73L], the abundance fitness was -0.004 ± 0.054.

In the case of RTSMTEEYRVPDGMVGLIIGRGGEQINKIQQDSGCKVQISPDSGGLPERSVSLTGAPESVQKAKMMLDDIVST [R73T], the abundance fitness was found to be 0.124 ± 0.063.

As to RTSMTEEYRVPDGMVGLIIGRGGEQINKIQQDSGCKVQISPDSGGLPERSVSLTGAPESVQKAKMMLDDIVSG [R73G], the abundance fitness turned out to be 0.177 ± 0.043.

Consider RTSMTEEYRVPDGMVGLIIGRGGEQINKIQQDSGCKVQISPDSGGLPERSVSLTGAPESVQKAKMMLDDIVSV [R73V], for which the abundance fitness is -0.074 ± 0.049.

Turning to RTSMTEEYRVPDGMVGLIIGRGGEQINKIQQDSGCKVQISPDSGGLPERSVSLTGAPESVQKAKMMLDDIVSK [R73K], the abundance fitness was 0.016 ± 0.069.

As for RTSMTEEYRVPDGMVGLIIGRGGEQINKIQQDSGCKVQISPDSGGLPERSVSLTGAPESVQKAKMMLDDIVSS [R73S], the abundance fitness was determined as 0.055 ± 0.06.

For the variant RTSMTEEYRVPDGMVGLIIGRGGEQINKIQQDSGCKVQISPDSGGLPERSVSLTGAPESVQKAKMMLDDIVSF [R73F], the abundance fitness is -0.162 ± 0.19.

Turning to RTSMTEEYRVPDGMVGLIIGRGGEQINKIQQDSGCKVQISPDSGGLPERSVSLTGAPESVQKAKMMLDDIVSD [R73D], the abundance fitness was found to be 0.021 ± 0.076.

As to RTSMTEEYRVPDGMVGLIIGRGGEQINKIQQDSGCKVQISPDSGGLPERSVSLTGAPESVQKAKMMLDDIVSI [R73I], the abundance fitness stood at 0.027 ± 0.1.

Turning to RTSMTEEYRVPDGMVGLIIGRGGEQINKIQQDSGCKVQISPDSGGLPERSVSLTGAPESVQKAKMMLDDIVSE [R73E], the abundance fitness is -0.013 ± 0.055.

Regarding RTSMTEEYRVPDGMVGLIIGRGGEQINKIQQDSGCKVQISPDSGGLPERSVSLTGAPESVQKAKMMLDDIVSW [R73W], the abundance fitness is -0.201 ± 0.061.

Consider RTSMTEEYRVPDGMVGLIIGRGGEQINKIQQDSGCKVQISPDSGGLPERSVSLTGAPESVQKAKMMLDDIVSC [R73C], for which the abundance fitness is 0.108 ± 0.083.

Turning to RTSMTEEYRVPDGMVGLIIGRGGEQINKIQQDSGCKVQISPDSGGLPERSVSLTGAPESVQKAKMMLDDIVSH [R73H], the abundance fitness was -0.099 ± 0.15.

Consider RTSMTEEYRVPDGMVGLIIGRGGEQINKIQQDSGCKVQISPDSGGLPERSVSLTGAPESVQKAKMMLDDIVDR [S72D], for which the abundance fitness was -0.032 ± 0.061.

For the variant RTSMTEEYRVPDGMVGLIIGRGGEQINKIQQDSGCKVQISPDSGGLPERSVSLTGAPESVQKAKMMLDDIVHR [S72H], the abundance fitness amounted to 0.019 ± 0.066.

Take RTSMTEEYRVPDGMVGLIIGRGGEQINKIQQDSGCKVQISPDSGGLPERSVSLTGAPESVQKAKMMLDDIVIR [S72I]: the abundance fitness was -0.086 ± 0.069.

With RTSMTEEYRVPDGMVGLIIGRGGEQINKIQQDSGCKVQISPDSGGLPERSVSLTGAPESVQKAKMMLDDIVKR [S72K], the abundance fitness is -0.048 ± 0.062.

Turning to RTSMTEEYRVPDGMVGLIIGRGGEQINKIQQDSGCKVQISPDSGGLPERSVSLTGAPESVQKAKMMLDDIVFR [S72F], the abundance fitness was -0.176 ± 0.075.

As for RTSMTEEYRVPDGMVGLIIGRGGEQINKIQQDSGCKVQISPDSGGLPERSVSLTGAPESVQKAKMMLDDIVVR [S72V], the abundance fitness is -0.085 ± 0.045.

RTSMTEEYRVPDGMVGLIIGRGGEQINKIQQDSGCKVQISPDSGGLPERSVSLTGAPESVQKAKMMLDDIVNR [S72N]: the abundance fitness amounted to 0.026 ± 0.076.

Regarding RTSMTEEYRVPDGMVGLIIGRGGEQINKIQQDSGCKVQISPDSGGLPERSVSLTGAPESVQKAKMMLDDIVER [S72E], the abundance fitness came to 0.007 ± 0.054.

RTSMTEEYRVPDGMVGLIIGRGGEQINKIQQDSGCKVQISPDSGGLPERSVSLTGAPESVQKAKMMLDDIVPR [S72P]: the abundance fitness was -0.282 ± 0.056.

As to RTSMTEEYRVPDGMVGLIIGRGGEQINKIQQDSGCKVQISPDSGGLPERSVSLTGAPESVQKAKMMLDDIVRR [S72R], the abundance fitness is 0.052 ± 0.039.

RTSMTEEYRVPDGMVGLIIGRGGEQINKIQQDSGCKVQISPDSGGLPERSVSLTGAPESVQKAKMMLDDIVGR [S72G]: the abundance fitness came to 0.118 ± 0.04.

As for RTSMTEEYRVPDGMVGLIIGRGGEQINKIQQDSGCKVQISPDSGGLPERSVSLTGAPESVQKAKMMLDDIVYR [S72Y], the abundance fitness is -0.079 ± 0.074.

Regarding RTSMTEEYRVPDGMVGLIIGRGGEQINKIQQDSGCKVQISPDSGGLPERSVSLTGAPESVQKAKMMLDDIVTR [S72T], the abundance fitness is -0.042 ± 0.052.

As to RTSMTEEYRVPDGMVGLIIGRGGEQINKIQQDSGCKVQISPDSGGLPERSVSLTGAPESVQKAKMMLDDIVWR [S72W], the abundance fitness is -0.191 ± 0.052.

With RTSMTEEYRVPDGMVGLIIGRGGEQINKIQQDSGCKVQISPDSGGLPERSVSLTGAPESVQKAKMMLDDIVLR [S72L], the abundance fitness was -0.103 ± 0.043.

As for RTSMTEEYRVPDGMVGLIIGRGGEQINKIQQDSGCKVQISPDSGGLPERSVSLTGAPESVQKAKMMLDDIVMR [S72M], the abundance fitness was -0.024 ± 0.06.

The variants in the next data set derive from B2. Described as above. The note with it: Homo sapiens.
In the case of KSDISQVFEIALKRNLPVNFEVARESGPPHMKNFVTKVSVGEFVGEGEGKSKKISKKNAAIAVLEEL [E3D], the abundance fitness is -0.286 ± 0.059.

For KSAISQVFEIALKRNLPVNFEVARESGPPHMKNFVTKVSVGEFVGEGEGKSKKISKKNAAIAVLEEL [E3A], the abundance fitness was -0.049 ± 0.041.

On to KSSISQVFEIALKRNLPVNFEVARESGPPHMKNFVTKVSVGEFVGEGEGKSKKISKKNAAIAVLEEL [E3S], for which the abundance fitness was -0.208 ± 0.045.

As for KSQISQVFEIALKRNLPVNFEVARESGPPHMKNFVTKVSVGEFVGEGEGKSKKISKKNAAIAVLEEL [E3Q], the abundance fitness is -0.247 ± 0.062.

For the variant KSRISQVFEIALKRNLPVNFEVARESGPPHMKNFVTKVSVGEFVGEGEGKSKKISKKNAAIAVLEEL [E3R], the abundance fitness is -0.551 ± 0.047.

On to KSMISQVFEIALKRNLPVNFEVARESGPPHMKNFVTKVSVGEFVGEGEGKSKKISKKNAAIAVLEEL [E3M], for which the abundance fitness was -0.509 ± 0.055.

As for KSNISQVFEIALKRNLPVNFEVARESGPPHMKNFVTKVSVGEFVGEGEGKSKKISKKNAAIAVLEEL [E3N], the abundance fitness is -0.396 ± 0.086.

For the variant KSPISQVFEIALKRNLPVNFEVARESGPPHMKNFVTKVSVGEFVGEGEGKSKKISKKNAAIAVLEEL [E3P], the abundance fitness was -0.023 ± 0.07.

KSLISQVFEIALKRNLPVNFEVARESGPPHMKNFVTKVSVGEFVGEGEGKSKKISKKNAAIAVLEEL [E3L]: the abundance fitness is -0.231 ± 0.043.
